The labels stand for the following.
B1: Tumor protein p73, residues 487 to 549; numbered along this chain, O15350 (parent)
chain: YHADPSLVSFLTGLGCPNCIEYFTSQGLQSIYHLQNLTIEDLGALKIPEQYRMTIWRGLQDLK

± gives the uncertainty stated by the source.

The variants in the series derive from B1. The experiment in a line: abundance fitness (aPCA) (normalised: wild type 0, dead -1); higher = more abundant; growth selection in yeast, the domain comes from the species named. The note with it: Homo sapiens.
Regarding YHADPSLVSFLTGLGCPNCIEYFTSQGLQSIYHLQNLTIEDLGALKIPEQYRLTIWRGLQDLK, the abundance fitness is 0.021 ± 0.032. For YHADPSLVSFLTGLGCPNCIEYFTSQGLQSIYHLQNLTIEDLGALKIPEQYRNTIWRGLQDLK the value was 0.01 ± 0.075.

Consider YHADPSLVSFLTGLGCPNCIEYFTSQGLQSIYHLQNLTIEDLGALKIPEQYRYTIWRGLQDLK, for which the abundance fitness is -0.302 ± 0.16.

YHADPSLVSFLTGLGCPNCIEYFTSQGLQSIYHLQNLTIEDLGALKIPEQYRSTIWRGLQDLK: the abundance fitness is 0.008 ± 0.04.

Regarding YHADPSLVSFLTGLGCPNCIEYFTSQGLQSIYHLQNLTIEDLGALKIPEQYRPTIWRGLQDLK, the abundance fitness was -0.051 ± 0.053.

YHADPSLVSFLTGLGCPNCIEYFTSQGLQSIYHLQNLTIEDLGALKIPEQYRHTIWRGLQDLK: the abundance fitness is 0.108 ± 0.075. Next, YHADPSLVSFLTGLGCPNCIEYFTSQGLQSIYHLQNLTIEDLGALKIPEQYRDTIWRGLQDLK: 0.019 ± 0.047; YHADPSLVSFLTGLGCPNCIEYFTSQGLQSIYHLQNLTIEDLGALKIPEQYRITIWRGLQDLK: -0.072 ± 0.1; YHADPSLVSFLTGLGCPNCIEYFTSQGLQSIYHLQNLTIEDLGALKIPEQYRATIWRGLQDLK: -0.025 ± 0.023. Next, YHADPSLVSFLTGLGCPNCIEYFTSQGLQSIYHLQNLTIEDLGALKIPEQYRKTIWRGLQDLK: -0.033 ± 0.078; YHADPSLVSFLTGLGCPNCIEYFTSQGLQSIYHLQNLTIEDLGALKIPEQYRGTIWRGLQDLK: -0.025 ± 0.032. Next, YHADPSLVSFLTGLGCPNCIEYFTSQGLQSIYHLQNLTIEDLGALKIPEQYRVTIWRGLQDLK: -0.061 ± 0.021; YHADPSLVSFLTGLGCPNCIEYFTSQGLQSIYHLQNLTIEDLGALKIPEQYRFTIWRGLQDLK: -0.123 ± 0.063. Turning to YHADPSLVSFLTGLGCPNCIEYFTSQGLQSIYHLQNLTIEDLGALKIPEQYRRTIWRGLQDLK, the abundance fitness was 0.027 ± 0.028.

For YHADPSLVSFLTGLGCPNCIEYFTSQGLQSIYHLQNLTIEDLGALKIPEQYRWTIWRGLQDLK, the abundance fitness was -0.04 ± 0.042. For YHADPSLVSFLTGLGCPNCIEYFTSQGLQSIYHLQNLTIEDLGALKIPEQYRTTIWRGLQDLK the value was 0.009 ± 0.043. In the case of YHADPSLVSFLTGLGCPNCIEYFTSQGLQSIYHLQNLTIEDLGALKIPEQYYMTIWRGLQDLK, the abundance fitness is 0.095 ± 0.24. For YHADPSLVSFLTGLGCPNCIEYFTSQGLQSIYHLQNLTIEDLGALKIPEQYRMTITRGLQDLK the value was 0.082 ± 0.051; for YHADPSLVSFLTGLGCPNCIEYFTSQGLQSIYHLQNLTIEDLGALKIPEQYRMTIDRGLQDLK, -0.241 ± 0.056. For YHADPSLVSFLTGLGCPNCIEYFTSQGLQSIYHLQNLTIEDLGALKIPEQYRMTISRGLQDLK the value was 0.011 ± 0.042; for YHADPSLVSFLTGLGCPNCIEYFTSQGLQSIYHLQNLTIEDLGALKIPEQYRMTIARGLQDLK, 0.014 ± 0.037; for YHADPSLVSFLTGLGCPNCIEYFTSQGLQSIYHLQNLTIEDLGALKIPEQYRMTIRRGLQDLK, -0.163 ± 0.029. For YHADPSLVSFLTGLGCPNCIEYFTSQGLQSIYHLQNLTIEDLGALKIPEQYRMTIGRGLQDLK the value was -0.128 ± 0.035; for YHADPSLVSFLTGLGCPNCIEYFTSQGLQSIYHLQNLTIEDLGALKIPEQYRMTIMRGLQDLK, -0.049 ± 0.05.

Regarding YHADPSLVSFLTGLGCPNCIEYFTSQGLQSIYHLQNLTIEDLGALKIPEQYRMTIYRGLQDLK, the abundance fitness stood at 0.037 ± 0.066. For YHADPSLVSFLTGLGCPNCIEYFTSQGLQSIYHLQNLTIEDLGALKIPEQYRMTIERGLQDLK the value was -0.047 ± 0.039; for YHADPSLVSFLTGLGCPNCIEYFTSQGLQSIYHLQNLTIEDLGALKIPEQYRMTIFRGLQDLK, 0.075 ± 0.07. YHADPSLVSFLTGLGCPNCIEYFTSQGLQSIYHLQNLTIEDLGALKIPEQYRMTICRGLQDLK: the abundance fitness is -0.124 ± 0.11. For YHADPSLVSFLTGLGCPNCIEYFTSQGLQSIYHLQNLTIEDLGALKIPEQYRMTIKRGLQDLK the value was -0.106 ± 0.044; for YHADPSLVSFLTGLGCPNCIEYFTSQGLQSIYHLQNLTIEDLGALKIPEQYRMTIQRGLQDLK, 0.035 ± 0.046; for YHADPSLVSFLTGLGCPNCIEYFTSQGLQSIYHLQNLTIEDLGALKIPEQYRMTINRGLQDLK, -0.137 ± 0.08. Next, YHADPSLVSFLTGLGCPNCIEYFTSQGLQSIYHLQNLTIEDLGALKIPEQYRMTIPRGLQDLK: -0.893 ± 0.13; YHADPSLVSFLTGLGCPNCIEYFTSQGLQSIYHLQNLTIEDLGALKIPEQYRMTILRGLQDLK: 0.017 ± 0.04. Next, YHADPSLVSFLTGLGCPNCIEYFTSQGLQSIYHLQNLTIEDLGALKIPEQYRMTIVRGLQDLK: -0.048 ± 0.043; YHADPSLVSFLTGLGCPNCIEYFTSQGLQSIYHLQNLTIEDLGALKIPEQYRMTIIRGLQDLK: 0.086 ± 0.058; YHADPSLVSFLTGLGCPNCIEYFTSQGLQSIYHLQNLTIEDLGALKIPEQYRMAIWRGLQDLK: -0.034 ± 0.042. As to YHADPSLVSFLTGLGCPNCIEYFTSQGLQSIYHLQNLTIEDLGALKIPEQYRMEIWRGLQDLK, the abundance fitness was -0.061 ± 0.07. Next, YHADPSLVSFLTGLGCPNCIEYFTSQGLQSIYHLQNLTIEDLGALKIPEQYRMRIWRGLQDLK: 0.02 ± 0.043; YHADPSLVSFLTGLGCPNCIEYFTSQGLQSIYHLQNLTIEDLGALKIPEQYRMCIWRGLQDLK: -0.13 ± 0.1; YHADPSLVSFLTGLGCPNCIEYFTSQGLQSIYHLQNLTIEDLGALKIPEQYRMDIWRGLQDLK: -0.01 ± 0.065. For the variant YHADPSLVSFLTGLGCPNCIEYFTSQGLQSIYHLQNLTIEDLGALKIPEQYRMYIWRGLQDLK, the abundance fitness is -0.189 ± 0.069. For YHADPSLVSFLTGLGCPNCIEYFTSQGLQSIYHLQNLTIEDLGALKIPEQYRMMIWRGLQDLK the value was -0.116 ± 0.058.

The values are drawn from the Human Domainome abundance scans (Beltran et al. 2025).
